Experimental data: patent US20160122742A1 (published 2016)

T1: Flag tagged ORC5 (UniProt O43913)
T1 sequence: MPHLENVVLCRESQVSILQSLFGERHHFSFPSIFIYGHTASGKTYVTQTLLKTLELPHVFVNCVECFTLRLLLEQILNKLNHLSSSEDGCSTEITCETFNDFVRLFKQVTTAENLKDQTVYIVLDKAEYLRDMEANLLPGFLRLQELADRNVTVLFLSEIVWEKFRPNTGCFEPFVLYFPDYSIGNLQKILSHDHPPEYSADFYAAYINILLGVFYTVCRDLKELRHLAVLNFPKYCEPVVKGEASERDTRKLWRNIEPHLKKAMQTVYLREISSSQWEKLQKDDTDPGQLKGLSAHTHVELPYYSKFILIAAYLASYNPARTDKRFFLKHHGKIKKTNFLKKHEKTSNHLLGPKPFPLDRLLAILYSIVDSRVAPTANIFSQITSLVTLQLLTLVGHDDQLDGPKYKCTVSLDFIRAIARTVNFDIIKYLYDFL

T2: Flag tagged ORC1 (N-terminal Flag, pCS2-Flag) (human, UniProt Q13415 1-861)
T2 construct: Transiently expressed in U2OS cells; also called Flag-ORC1
T2 sequence: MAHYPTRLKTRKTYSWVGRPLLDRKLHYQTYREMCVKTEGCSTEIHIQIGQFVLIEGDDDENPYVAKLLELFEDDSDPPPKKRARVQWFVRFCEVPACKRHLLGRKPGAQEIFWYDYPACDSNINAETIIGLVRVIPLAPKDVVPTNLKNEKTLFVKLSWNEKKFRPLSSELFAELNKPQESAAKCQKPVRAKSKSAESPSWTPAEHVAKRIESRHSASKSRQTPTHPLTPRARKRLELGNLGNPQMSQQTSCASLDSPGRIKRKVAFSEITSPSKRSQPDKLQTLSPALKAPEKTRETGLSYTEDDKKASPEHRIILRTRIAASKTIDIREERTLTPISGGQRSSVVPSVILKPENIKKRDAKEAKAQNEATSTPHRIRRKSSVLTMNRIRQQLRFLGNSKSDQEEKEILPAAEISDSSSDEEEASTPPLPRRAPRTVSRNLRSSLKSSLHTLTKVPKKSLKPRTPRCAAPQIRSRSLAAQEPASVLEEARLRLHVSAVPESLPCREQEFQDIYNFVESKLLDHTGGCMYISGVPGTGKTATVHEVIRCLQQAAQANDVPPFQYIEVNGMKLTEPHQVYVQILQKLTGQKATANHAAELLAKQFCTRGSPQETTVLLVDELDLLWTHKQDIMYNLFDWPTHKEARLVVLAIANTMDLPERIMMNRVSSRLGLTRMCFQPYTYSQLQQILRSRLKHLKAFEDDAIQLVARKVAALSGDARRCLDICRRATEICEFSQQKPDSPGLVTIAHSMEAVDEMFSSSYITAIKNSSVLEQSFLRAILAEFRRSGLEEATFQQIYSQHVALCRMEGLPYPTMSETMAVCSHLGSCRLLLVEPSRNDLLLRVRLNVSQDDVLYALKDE


How the values were obtained:
Flag tagged ORC5 = target: T1, Flag tagged ORC5
[1] = target: T2, Flag tagged ORC1 (N-terminal Flag, …); assay: anti-Flag co-immunoprecipitation from U2OS cells, western blot with anti-Myc
Experimental: For cell lysis, immunoprecipitation and western blotting were performed following standard methods. Briefly, cells were lysed in TK300 lysis buffer (20 mM Tris-HCl pH 7.9; 300 mM KCl, 5 mM MgCl2, 10% glycerol; 0.5% NP-40 plus protease inhibitors cocktail) on ice for 30 min. The protein concentration of the clarified lysates was estimated using the BCA method (Pierce). For immunoprecipitation experiments, equivalent amounts of protein samples were incubated at 4° C. with anti-Flag coupled agarose beads (Sigma Aldrich) for 4 h. After extensive washing with TK300 lysis buffer, bound proteins were eluted in boiling Laemmli buffer. Samples were runs on pre-cast gradient gel (NuPage Novex, Invitrogen and Mini-PROTEAN TGX, Biorad) and transferred to nitrocellulose membrane.
U20S cells were transiently transfected with plasmids coding for Myc-tagged WT Obi1 or mutated Obi1, and also co-transfected with plasmids coding for Flag-ORC1. 48 hours post-transfection, cells were lyzed and the soluble fraction was subjected to an anti-Flag immunoprecipitation (IP:Flag—FIG. 24B). Ectopic proteins were detected by western blotting. Under these conditions, specific Obi1/ORC1 complex is detected in the immunoprecipitate. In contrast, no association is observed between ORC1 and the mutated Obi1 protein (FIG. 24B).

Row | Molecule | ubiquitination of Flag-ORC5 (high-molecular weight ubiquitin adducts after anti-Flag IP) (Flag tagged ORC5) | binding result [1]
1 | Xenopus Myc6-tagged Obi1 WT | both human and xenopus Obi1, sharing 35% identity of their amino acid sequence, are able to ubiquitinate ORC5 | –
2 | Myc-tagged mutated Obi1 (truncated Obi1 protein of the Meier-Gorlin patient) (other, also called C.1370_1371delAA,P.GLU457VALFSX24; not shown: Myc tag) MAQTVQNVTLSLTLPITCHICLGKVRQPVICINNHVFCSICIDLWLKNNSQCPACRVPITPENPCKEIIGGTSESEPMLSHTVRKHLRKTRLELLHKEYEDEIDCLQKEVEELKSKNLSLESQIKTILDPLTLVQGNQNEDKHLVTDNPSKINPETVAEWKKKLRTANEIYEKVKDDVDKLKEANKKLKLENGGLVRENLRLKAEVDNRSPQKFGRFAVAALQSKVEQYERETNRLKKALERSDKYIEELESQVAQLKNSSEEKEAMNSICQTALSADGKGSKGSEEDVVSKNQGDSARKQPGSSTSSSSHLAKPSSSRLCDTSSARQESTSKADLNCSKNKDLYQEQVEVMLDVTDTSMDTYLEREWGNKPSDCVPYKDEELYDLPAPCTPLSLSCLQLSTPENRESSVVQAGGSKKHSNHLRKLVFDDFCDSSNVSNKDSSEDDISRSENEKKSVFFFPKDRILGLLFHKLCPKLRF | – | no binding
